Measurements reported in paper PMC3144404.

Biological target: actin, endogenous (human (endogenous in myoblasts and myotubes from human muscle biopsies)) (UniProt P60709)
Assay: co-IP

percent of input immunoprecipitated: 87%
Substance: STIM1L (long splice variant of stromal interaction molecule 1), endogenous (from UniProt Q13586-2 23-540) (natural protein)
